Reference: patent US20250020645, “A4B1 BINDING APTAMERS” (University of Washington, published 2025)

Key:
[1] = target: T1, Integrin alpha4beta1 (VLA-4, CD49d/CD29), recombinant heterodimer (Homo sapiens, UniProt P13612;P05556 P13612:34-977,P05556:21-728); assay: BLI; negative control aptamer, 100 nM protein; details: tags: His-tag; ACROBiosystems IT1-H52W1; label: biotin
Experimental: (§1) Bio-layer interferometry. BLI studies were performed on an Octet RED96 instrument (Sartorius of Göttingen, Germany) using streptavidin biosensors (Sartorius) as previously described (Cheng et al. (2022) J Am Chem Soc, 144, 13851-64). Briefly, wash buffer supplemented with 1% BSA, 0.1 mg/mL yeast tRNA, 0.1 mg/mL salmon sperm DNA, and 0.01% Tween-20 (Sigma) was used as the sample buffer for all steps. All steps were performed at 25° C. with sample agitation at 1000 rpm. Biosensors were allowed to equilibrate in buffer for at least 10 min before loading. For sensor loading, 50 nM biotinylated aptamers were loaded until a 0.5 nm threshold before performing rinse and baseline steps in buffer alone for 100 s each. Afterwards, aptamer-loaded sensors were associated with His-tagged human α4β1 (IT1-H52W1, ACROBiosystems of Beijing, China) or His-tagged human α4β7 (IT7-H52W4, ACROBiosystems) at concentrations and times indicated in the figures and captions. Lastly, sensors were transferred to wells containing buffer alone for dissociation. […] Kinetic constants were calculated for datasets with several analyte concentrations by conducting a global fit of the association and dissociation curves to a 1:1 ligand binding model. The quality of each fit was evaluated using R2 and χ2 values, which are listed in Table 6 for the appropriate datasets along with the calculated kinetic constants. […]

[2] = target: Integrin alpha4beta7, recombinant heterodimer (Homo sapiens, UniProt P13612;P26010 P13612:34-977,P26010:20-723); assay: BLI; negative control aptamer, 100 nM protein; details: tags: His-tag; ACROBiosystems IT7-H52W4; label: biotin
Experimental: as §1

[3] = target: T2, Integrin alpha4beta1 on Jurkat cells (clone E6-1) (Homo sapiens, UniProt P13612;P05556 P13612:34-1032,P05556:21-798); assay: flow; apparent, 4 C; details: tags: endogenous, ATCC cell line
Experimental: (§2) Binding assay: Jurkat cells were washed with DPBS and incubated with Zombie Violet (1:500, 10⁷ cells/mL, BioLegend) in DPBS for live/dead staining for 15 min at room temperature. After live/dead staining, cells were washed with aptamer washed buffer supplemented with 1% BSA to quench the remaining dye and aliquoted in a 96-well plate at 1-2e5 cells/well. For aptamer staining, cells were incubated with annealed aptamers at the indicated concentrations in 100 μL binding buffer (aptamer wash buffer supplemented with 1% BSA and 0.1 mg/ml yeast RNA) for 20-30 min at 4° C. For binding analysis at different temperatures, aptamers (diluted in binding buffer) and cells were separately incubated at the indicated temperatures for 20 min for equilibration. The equilibrated aptamer solutions were then added to the cells and allowed to incubate for 20-30 min. After incubation, cells were washed 2 times with 200 μL aptamer wash buffer supplemented with 1% BSA, resuspended in 200 μL aptamer wash buffer supplemented with 1% BSA and 0.2% PFA, and analyzed on an Attune NxT cytometer.

[4] = target: T2, Integrin alpha4beta1 on Jurkat cells …; assay: flow; apparent, 4 C; better retained binding at 20 and 37 C than parent; details: tags: endogenous, ATCC cell line
Experimental: as §2

[5] = target: T2, Integrin alpha4beta1 on Jurkat cells …; assay: competition; 50% block of 100 nM VCAM-1 binding to Jurkat cells; details: tags: endogenous, ATCC cell line; label: biotin, FAM or Cy5
Experimental: CS1 peptide and VCAM-1 competition. For competition studies involving the CS1 peptide, a Tris-based wash buffer comprised of TBS (Fisher) supplemented with 4.5 g/L glucose, 5.5 mM MgCl², 0.9 mM CaCl², and 10 mM MnCl² was used instead of the normal DPBS-based wash buffer described above. Mn²⁺ has previously been described to support α4β1 binding to the fibronectin CS1 peptide (Masumoto and Hemler. (1993) Journal of Biological Chemistry, 268, 228-234), and as MnCl² precipitates in DPBS, a Tris-based wash buffer was thus required. Peptide stocks were prepared fresh in the Tris-based wash buffer at 20 mM prior to the competition studies and the exact concentration was measured using a QuantTag Biotin Quantification Kit (Vector Labs of Newark, CA). Live/dead and aptamer staining were carried out as described above, except cells were pre-blocked with varying concentrations of the SCR-b or CS1-b peptide in Tris-based wash buffer supplemented with 1% BSA (w/v) and 0.1 mg/mL yeast tRNA for 30 min at room temperature prior to spiking in aptamer and incubating for another 30 min at 4° C. As Tris can neutralize PFA, cells were resuspended in regular wash buffer 1% BSA with 0.5% PFA after washing before analyzing on the flow cytometer. […]

[6] = target: T1, Integrin alpha4beta1 (VLA-4, …); assay: BLI; 25 C, immobilised biotin-aptamer; details: tags: His-tag; ACROBiosystems IT1-H52W1; label: biotin, FAM or Cy5
Experimental: (§3) Bio-layer interferometry. BLI studies were performed on an Octet RED96 instrument (Sartorius of Göttingen, Germany) using streptavidin biosensors (Sartorius) as previously described (Cheng et al. (2022) J Am Chem Soc, 144, 13851-64). Briefly, wash buffer supplemented with 1% BSA, 0.1 mg/mL yeast tRNA, 0.1 mg/mL salmon sperm DNA, and 0.01% Tween-20 (Sigma) was used as the sample buffer for all steps. All steps were performed at 25° C. with sample agitation at 1000 rpm. Biosensors were allowed to equilibrate in buffer for at least 10 min before loading. For sensor loading, 50 nM biotinylated aptamers were loaded until a 0.5 nm threshold before performing rinse and baseline steps in buffer alone for 100 s each. […] Kinetic constants were calculated for datasets with several analyte concentrations by conducting a global fit of the association and dissociation curves to a 1:1 ligand binding model. The quality of each fit was evaluated using R2 and χ2 values, which are listed in Table 6 for the appropriate datasets along with the calculated kinetic constants.
(§4) Table 6 lists BLI measured affinity kinetics of immobilized HR7A1, HR7A1.Tr1, and HR7A1.Tr2 aptamer binding to recombinant α4β1 protein. […] Values were calculated by performing a global fit of the binding curve data in FIG. 2B to a 1:1 binding model. […] The goodness of fit was evaluated by a reduced chi-square (χ2) and a R2 value approaching 1.

[7] = target: T2, Integrin alpha4beta1 on Jurkat cells …; assay: competition; 50% displacement of 20 nM Cy5-Sgc4f on Jurkat cells; details: tags: endogenous, ATCC cell line; label: biotin, FAM or Cy5; motif on top of a stem formed by flanking constant regions (predicted)
Experimental: (§5) Aptamer binding studies. While suspension H9, Jurkat, Raji, and K562 cells were harvested normally, adherent B16F10 cells were non-enzymatically dissociated with Versene (Gibco) prior to binding studies to prevent possible enzymatic cleavage of the α4β1 integrin that would affect aptamer binding. Once harvested, cells (2×10⁵) were pre-stained with Zombie Violet in DPBS for 15 min at room temperature, washed once with wash buffer supplemented with 1% BSA, and incubated with 100 μL folded FAM-labeled ssDNA pools or FAM/Cy5-labeled individual aptamers for 30 min at 4° C. in binding buffer at the indicated concentrations. For antibody co-staining, antibodies were added to the incubation with aptamers. For competitive binding studies, unique aptamers with different fluorescent labels were co-incubated on cells at different concentrations. Cells were then washed twice with 200 μL wash buffer 1% BSA to remove excess staining reagent. If biotinylated aptamers were used for primary staining, cells received a secondary stain with 100 μL fluorescently labeled streptavidin in wash buffer 1% BSA for 20 min at 4° C. and then washed twice as before. Lastly, stained cells were lightly fixed in 200 μL wash buffer 1% BSA with 0.1-0.5% perfluoroalkoxy alkane (PFA) before immediate analysis via flow cytometry as described above. […]

[8] = target: Integrin alpha4beta1 on B16F10 melanoma cells (Mus musculus, UniProt Q00651;P09055 Q00651:41-1039,P09055:21-798); assay: flow; apparent, 4 C; details: tags: endogenous, ATCC cell line; label: biotin, FAM or Cy5; motif on top of a stem formed by flanking constant regions (predicted)
Experimental: as §5, with “reagent.” for “reagent. If biotinylated aptamers were used for primary staining, cells received a secondary stain with 100 μL fluorescently labeled streptavidin in wash buffer 1% BSA for 20 min at 4° C. and then washed twice as before. Lastly, stained cells were lightly fixed in 200 μL wash buffer 1% BSA with 0.1-0.5% perfluoroalkoxy alkane (PFA) before immediate analysis via flow cytometry as described above.”
FIGS. 16A, 16B illustrate that HR7A1 binds mouse α4β1. […] (16B) Flow cytometry binding curves of Cy5-labeled CD8.A3t, HR7A1, and Sgc4f to B16F10 cells, as determined by MFI. […] KD values were calculated by averaging the individual regression values of the independent experiments. […]

[9] = target: T1, Integrin alpha4beta1 (VLA-4, …); assay: BLI; 25 C, immobilised biotin-aptamer, DPBS Ca/Mg + 5 mM MgCl2 + BSA/tRNA/ssDNA; details: tags: His-tag; ACROBiosystems IT1-H52W1; label: biotin, FAM or Cy5; motif on top of a stem formed by flanking constant regions (predicted)
Experimental: as §3, §4

[10] = target: T2, Integrin alpha4beta1 on Jurkat cells …; assay: competition; 50% displacement of 20 nM Cy5-HR7A1 on Jurkat cells; details: tags: endogenous, ATCC cell line; label: Cy5
Experimental: as §5

T2 sequence (P13612 34-1032, chain 1 of 2): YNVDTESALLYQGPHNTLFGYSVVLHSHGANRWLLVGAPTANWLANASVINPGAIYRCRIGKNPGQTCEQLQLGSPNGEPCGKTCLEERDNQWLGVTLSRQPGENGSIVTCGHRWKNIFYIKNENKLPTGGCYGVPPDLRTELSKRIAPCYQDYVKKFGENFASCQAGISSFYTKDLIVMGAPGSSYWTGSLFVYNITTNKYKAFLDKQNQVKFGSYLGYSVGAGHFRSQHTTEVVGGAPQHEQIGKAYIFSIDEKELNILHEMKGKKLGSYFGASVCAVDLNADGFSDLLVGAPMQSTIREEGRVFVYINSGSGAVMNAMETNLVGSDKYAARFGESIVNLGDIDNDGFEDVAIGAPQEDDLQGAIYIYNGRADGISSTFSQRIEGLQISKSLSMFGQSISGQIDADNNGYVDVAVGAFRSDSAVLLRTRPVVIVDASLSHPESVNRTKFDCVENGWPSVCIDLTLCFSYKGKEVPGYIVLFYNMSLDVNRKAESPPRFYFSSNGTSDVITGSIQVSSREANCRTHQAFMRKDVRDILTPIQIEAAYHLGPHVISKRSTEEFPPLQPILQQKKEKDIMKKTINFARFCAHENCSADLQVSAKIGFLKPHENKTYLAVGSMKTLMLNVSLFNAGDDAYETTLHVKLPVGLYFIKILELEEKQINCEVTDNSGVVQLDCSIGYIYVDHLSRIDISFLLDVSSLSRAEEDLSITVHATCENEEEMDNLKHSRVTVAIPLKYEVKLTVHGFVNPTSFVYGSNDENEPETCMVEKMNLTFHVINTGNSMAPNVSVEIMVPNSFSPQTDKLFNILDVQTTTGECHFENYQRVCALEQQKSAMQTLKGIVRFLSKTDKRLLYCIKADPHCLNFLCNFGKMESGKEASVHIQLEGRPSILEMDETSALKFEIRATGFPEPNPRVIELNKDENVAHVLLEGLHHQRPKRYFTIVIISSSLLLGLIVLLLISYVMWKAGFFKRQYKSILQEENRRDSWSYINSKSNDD
T2 sequence (P05556 21-798, chain 2 of 2): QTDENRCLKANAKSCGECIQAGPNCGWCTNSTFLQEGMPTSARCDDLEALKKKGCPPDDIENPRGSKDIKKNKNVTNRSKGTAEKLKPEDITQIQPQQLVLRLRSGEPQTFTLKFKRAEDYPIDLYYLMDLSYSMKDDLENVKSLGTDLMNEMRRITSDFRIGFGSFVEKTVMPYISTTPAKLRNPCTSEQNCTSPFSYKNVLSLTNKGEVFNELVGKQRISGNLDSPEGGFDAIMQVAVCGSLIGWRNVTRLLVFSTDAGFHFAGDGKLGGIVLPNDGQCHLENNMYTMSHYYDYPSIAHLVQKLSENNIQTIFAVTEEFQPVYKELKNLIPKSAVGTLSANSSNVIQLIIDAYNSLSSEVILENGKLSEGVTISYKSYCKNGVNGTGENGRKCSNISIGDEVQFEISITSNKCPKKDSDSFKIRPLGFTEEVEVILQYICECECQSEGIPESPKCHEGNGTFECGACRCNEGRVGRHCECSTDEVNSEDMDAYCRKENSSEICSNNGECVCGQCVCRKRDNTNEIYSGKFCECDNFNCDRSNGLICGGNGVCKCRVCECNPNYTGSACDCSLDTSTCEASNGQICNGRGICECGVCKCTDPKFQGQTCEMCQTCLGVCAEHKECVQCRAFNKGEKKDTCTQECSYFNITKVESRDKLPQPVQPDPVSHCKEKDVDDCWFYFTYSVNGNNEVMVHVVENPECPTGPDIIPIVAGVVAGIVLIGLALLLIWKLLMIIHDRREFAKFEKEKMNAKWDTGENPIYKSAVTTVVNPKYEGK
T1 sequence (P13612 34-977, chain 1 of 2): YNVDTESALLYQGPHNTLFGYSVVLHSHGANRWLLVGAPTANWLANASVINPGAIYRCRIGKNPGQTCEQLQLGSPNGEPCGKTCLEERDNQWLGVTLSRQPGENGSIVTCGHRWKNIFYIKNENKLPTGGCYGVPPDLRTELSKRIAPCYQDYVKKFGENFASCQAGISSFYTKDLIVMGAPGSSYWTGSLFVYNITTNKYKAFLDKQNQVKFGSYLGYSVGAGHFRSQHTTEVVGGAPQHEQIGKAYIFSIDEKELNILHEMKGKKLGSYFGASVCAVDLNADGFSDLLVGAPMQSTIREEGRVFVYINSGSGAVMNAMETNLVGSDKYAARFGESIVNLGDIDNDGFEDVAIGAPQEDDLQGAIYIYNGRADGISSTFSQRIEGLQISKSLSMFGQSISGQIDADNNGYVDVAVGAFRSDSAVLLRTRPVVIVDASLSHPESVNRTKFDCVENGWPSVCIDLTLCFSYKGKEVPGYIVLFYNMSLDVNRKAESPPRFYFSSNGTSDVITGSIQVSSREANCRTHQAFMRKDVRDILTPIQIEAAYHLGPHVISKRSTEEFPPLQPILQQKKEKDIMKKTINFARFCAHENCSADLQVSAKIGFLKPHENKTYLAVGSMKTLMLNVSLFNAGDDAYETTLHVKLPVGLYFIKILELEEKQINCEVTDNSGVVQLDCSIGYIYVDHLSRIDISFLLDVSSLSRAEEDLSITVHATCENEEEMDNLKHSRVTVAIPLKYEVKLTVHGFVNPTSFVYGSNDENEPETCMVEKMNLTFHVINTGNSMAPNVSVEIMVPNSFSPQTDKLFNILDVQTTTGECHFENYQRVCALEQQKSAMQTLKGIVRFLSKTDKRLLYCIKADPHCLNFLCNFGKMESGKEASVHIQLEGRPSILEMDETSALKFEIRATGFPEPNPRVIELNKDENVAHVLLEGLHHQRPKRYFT
T1 sequence (P05556 21-728, chain 2 of 2): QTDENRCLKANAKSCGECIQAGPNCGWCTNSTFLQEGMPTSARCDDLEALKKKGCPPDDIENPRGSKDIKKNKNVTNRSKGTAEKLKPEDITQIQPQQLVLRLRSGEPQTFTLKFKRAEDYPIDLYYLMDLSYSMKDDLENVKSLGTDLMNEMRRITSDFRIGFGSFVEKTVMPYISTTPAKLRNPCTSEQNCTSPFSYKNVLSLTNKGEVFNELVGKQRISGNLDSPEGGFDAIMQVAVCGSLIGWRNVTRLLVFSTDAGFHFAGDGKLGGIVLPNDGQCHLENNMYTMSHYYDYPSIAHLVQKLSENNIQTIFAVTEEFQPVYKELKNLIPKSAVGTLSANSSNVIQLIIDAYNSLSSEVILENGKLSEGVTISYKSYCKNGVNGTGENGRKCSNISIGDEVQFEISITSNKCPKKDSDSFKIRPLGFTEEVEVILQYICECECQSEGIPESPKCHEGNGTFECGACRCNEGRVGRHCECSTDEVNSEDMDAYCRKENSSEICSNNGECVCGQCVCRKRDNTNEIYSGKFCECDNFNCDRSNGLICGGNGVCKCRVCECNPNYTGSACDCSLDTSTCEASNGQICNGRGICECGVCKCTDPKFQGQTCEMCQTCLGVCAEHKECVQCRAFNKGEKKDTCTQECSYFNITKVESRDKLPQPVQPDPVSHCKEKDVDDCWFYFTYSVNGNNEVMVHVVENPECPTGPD
Integrin alpha4beta7, recombinant heterodimer, sequence (P13612 34-977, chain 1 of 2): as the sequence (P13612 34-977, chain 1 of 2) above
Integrin alpha4beta7, recombinant heterodimer, sequence (P26010 20-723, chain 2 of 2): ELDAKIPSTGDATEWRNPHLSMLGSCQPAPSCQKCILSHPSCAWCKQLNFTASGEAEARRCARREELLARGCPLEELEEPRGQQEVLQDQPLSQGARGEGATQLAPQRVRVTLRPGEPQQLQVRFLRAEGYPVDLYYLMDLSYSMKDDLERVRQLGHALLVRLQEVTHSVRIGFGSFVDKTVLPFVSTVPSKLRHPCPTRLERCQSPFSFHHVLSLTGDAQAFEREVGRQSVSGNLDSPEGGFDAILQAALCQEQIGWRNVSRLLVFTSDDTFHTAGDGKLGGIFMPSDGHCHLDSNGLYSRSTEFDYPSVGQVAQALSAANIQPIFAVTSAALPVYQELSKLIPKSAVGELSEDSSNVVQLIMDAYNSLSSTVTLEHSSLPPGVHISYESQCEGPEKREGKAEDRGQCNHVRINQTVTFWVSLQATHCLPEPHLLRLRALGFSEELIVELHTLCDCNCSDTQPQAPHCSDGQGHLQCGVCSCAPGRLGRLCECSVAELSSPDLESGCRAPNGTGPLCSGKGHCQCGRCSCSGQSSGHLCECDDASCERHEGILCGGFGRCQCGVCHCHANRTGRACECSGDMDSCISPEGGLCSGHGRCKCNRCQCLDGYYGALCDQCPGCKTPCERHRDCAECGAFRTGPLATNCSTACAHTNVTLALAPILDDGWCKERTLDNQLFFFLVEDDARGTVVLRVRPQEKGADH

B1: CD8.A3 (ssDNA)
DNA: ATCCAGAGTGACGCAGCAACAGAGGTGTAGAAGTACACGTGAACAAGCTTGAAATTGTCTCTGACAGAGGTGGACACGGTGGCTTAGT
B1: no binding [1]; no binding [2].

With CGCGCCGTACTAGATGCAACCCGACTACTAACGTCGTACGAGCGCG (ssDNA, PS at three terminal linkages of each end: C*G*C*GCC...GAGC*G*C*G) [HR7A1.Tr2.S2E2.PS3] the Kd [3] was 3.2 nM.

In the case of CGCGCCGTACTAGATGCAACCCGACTACTAACGTCGTACGAGCGCG (ssDNA, PS at * : C*G*CGCCGTA*CTA*GA*TGCA*A*CCCGACTACTAA*CGTCGTACGAGCG*C*G) [HR7A1.Tr2.S2E2.PSA], the Kd [4] is reported as 9.6 nM.

Binder CTCCTTACTAGATGCAACCCGACTACTAACGTCGTAAGAGAG (ssDNA) [HR7A1.Tr2] has an IC50 [5] of 3 nM and a Kd [6] of 9.89 nM.

B2: HR7A1 (ssDNA)
DNA: ATCCAGAGTGACGCAGCAAACCTGACCTCCTTACTAGATGCAACCCGACTACTAACGTCGTAAGAGAGCCTGGACACGGTGGCTTAGT
For B2, the IC50 [7] was 0.3 fold excess, the Kd [8] was 5.2 nM and the Kd [9] was 6.28 nM.

B3: Sgc4f (ssDNA)
DNA: ATCACTTATAACGAGTGCGGATGCAAACGCCAGACAGGGGGACAGGAGATAAGTGA
B3 showed an IC50 [10] of over 3 fold excess.

B4: HR7A1.Tr1 (ssDNA)
DNA: CAGCAAACCTGACCTCCTTACTAGATGCAACCCGACTACTAACGTCGTAAGAGAG
B4 gave a Kd [6] of 7.74 nM.
